Source: patent publication US20130273062A1, “ANTIBODIES AGAINST HUMAN CD39 AND USE THEREOF” (OREGA BIOTECH, priority 2010, published 2013)

T1: CD39 ATPase activity of lymphoma cells (Ramos) (Homo sapiens, UniProt P49961)
T1 construct: BL41, B104 and Ramos express CD39 at their cell surface; endogenous in cells; host or cells: Ramos Burkitt lymphoma cells
T1 sequence (P49961 1-510): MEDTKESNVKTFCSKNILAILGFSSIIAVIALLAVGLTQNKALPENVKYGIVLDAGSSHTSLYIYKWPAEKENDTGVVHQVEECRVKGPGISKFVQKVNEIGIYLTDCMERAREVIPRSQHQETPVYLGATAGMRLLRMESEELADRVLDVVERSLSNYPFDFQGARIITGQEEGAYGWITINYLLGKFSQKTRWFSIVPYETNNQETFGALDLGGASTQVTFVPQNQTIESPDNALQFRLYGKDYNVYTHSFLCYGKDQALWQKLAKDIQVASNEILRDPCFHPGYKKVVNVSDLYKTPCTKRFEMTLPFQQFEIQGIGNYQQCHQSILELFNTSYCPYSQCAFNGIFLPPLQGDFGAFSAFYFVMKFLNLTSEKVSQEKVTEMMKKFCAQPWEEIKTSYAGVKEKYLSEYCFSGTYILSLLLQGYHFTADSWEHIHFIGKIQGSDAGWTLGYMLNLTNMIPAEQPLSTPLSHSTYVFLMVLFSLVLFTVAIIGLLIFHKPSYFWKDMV

T2: CD39 ATPase activity of melanoma cells (SK-MEL-5) (Homo sapiens, UniProt P49961)
T2 construct: SK-MEL-5 and SK-MEL-28 cell lines display membranous expression of CD39; endogenous in cells; host or cells: SK-MEL-5 melanoma cells
T2 sequence (P49961 1-510): T1 sequence (P49961 1-510)

B1: BY40: murine CD39 antibody from hybridoma CNCM I-3889; VH SEQ ID NO: 1, VL SEQ ID NO: 5 (antibody, listed as Mus musculus)
VH: TRVKKPRETVKISCKASGYTFTHYGMNWVKQAPGKGLKWMGWINTYTGEPTYADDFKGRFAFSLEASVSTAYLQINNLKNEDTATYFCARRRYEGNYVFYYFDYWGQGTTLTVSSAKTTPPSVYPLAPGSAAQTNSMVTLGCLVKGYFPEQVTVTWNSGSLSSGVHTFPAVLQSDLYTLSSSVTVPS
light: DIQMTQSPASLSASVGETVTITCRASENIYSYFSWYQQKQGKSPQLLVYTAKTLAEGVPSRFSGSGSGTQFSLKINSLQPEDFGSYYCQHHYVTPYTFGGGTKLEIKRADAAPTVSIFPPSSEQLTSGGASVVCFLNNFYPKDINVKWKIDGSERQNGVLNSWTD
B2: BA54g: CD39 monoclonal antibody from hybridoma CNCM I-4171; VH SEQ ID NO: 11, VL SEQ ID NO: 15 (antibody, listed as Mus musculus, V domains shown)
VH: DVQLVESGGGLVQPGGSRKLSCAASGFTFSSFGMHWVRQAPEKGLEWVAYISSGSSIIYYADTVKGRFTISRDNPKNTLFLQMTSLGSEDTAMYYCARWSTTVVATDYWGQGTTLTVS
VL: NIVMTQSPKSMSMSVGERVTLTCKASENVVTYVSWYQQKPEQSPKLLIYGASNRYTGVPDRFTGSGSATDFTLTISSVQAEDLADYHCGQGYSYPYTFGGGTKLEIKR

Experiments:
[1] = tested on: CD4 and CD8 T cells (PBMC) cultured with CD39-expressing SK-MEL-5 melanoma cells; test: Inhibition of melanoma cell-mediated suppression: proliferation of CFSE-labelled T cells co-cultured with irradiated SK-MEL-5; type: cell-based, human; details: CFSE-labelled PBMC + irradiated SK-MEL-5, 5 days, BY40 5 μg/mL, POM-1 100 or 250 μM, flow cytometry; for CD4 T cell proliferation: FIG. 4A; for CD8 T cell proliferation: FIG. 4B
Experimental: FIG. 4: CD39 antibody (BY40) restores T cell responses against melanoma cells. 5×10^4 CFSE-labelled PBMC were cultured in the presence of 5×10^3 irradiated (100 Gy) SK-MEL-5 (NT). POM-1 (100 or 250 μM), BY40 or control isotype antibody D6212 (5 μg/mL) were added at the beginning of the culture and after 2 days of culture. After 5 days of culture, proliferation of CFSE-labelled CD4 (A) and CD8 (B) T cells was analysed by flow cytometry. Experiment was performed in duplicate and results are representative of 2 independent experiments.
5×10^4 CFSE-labelled PBMC were cultured in the presence of 5×10^3 irradiated (100 Gy) SK-MEL-5 (NT). POM-1 (100 or 250 μM), BY40 or control isotype antibody D6212 (5 μg/mL) were added at the beginning of the culture and after 2 days of culture. After 5 days of culture, proliferation of CFSE-labelled CD4 (A) and CD8 (B) T cells was analysed by flow cytometry. Experiment was performed in duplicate and results are representative of 2 independent experiments.

[2] = molecular target: T1, CD39 ATPase activity of lymphoma cells (Ramos); test: Inhibition of lymphoma-CD39 enzymatic (ATPase) activity, phosphate release measured with Malachite green; type: cell-based; details: Ramos cells cultured with increasing doses of mAb for 16 h, then 100 μM ATP for 15 min; FIG. 7
Experimental: (§1) FIG. 7: CD39 antibodies inhibit CD39 ATPase activity of lymphoma cells. 1×10^5 lymphoma cells (Ramos) were cultured in complete RPMI medium alone or in presence of BA54g, BY12 or BY40 mAbs, at the indicated concentrations, for 16 h. Cells were then washed three times in phosphate free buffer (10 mM glucose, 20 mM Hepes, 5 mM KCl, 120 mM NaCl, 2 mM CaCl2) and resuspended in the same buffer supplemented with 100 μM ATP for 15 min. Phosphate concentration in supernatants was measured after addition of Malachite green/polyvinylalcohol /ammonium mobylate solution for 20 min by a spectrophotometer at 620 nm and compared against a standard curve. Results are the mean of two independent experiments.
as §1, with “1×10^5” for “FIG. 7: CD39 antibodies inhibit CD39 ATPase activity of lymphoma cells. 1×10^5”, “KC1,” for “KCl,”

[3] = molecular target: T2, CD39 ATPase activity of melanoma cells (SK-MEL-5); test: Inhibition of melanoma-CD39 enzymatic (ATPase) activity, phosphate release measured with Malachite green; type: cell-based; details: SK-MEL-5 cells cultured with mAb for 16 h, then 100 μM ATP for 15 min; FIG. 3
Experimental: FIG. 3: CD39 (BA54g) antibody inhibits CD39 ATPase activity of melanoma cells. 1×10^5 melanoma cells (SK-MEL-5) were cultured in complete RPMI medium alone or in presence of BA54g mAb for 16 h. Cells were then washed three times in phosphate free buffer (10 mM glucose, 20 mM Hepes, 5 mM KCl, 120 mM NaCl, 2 mM CaCl2) and resuspended in the same buffer supplemented with 100 μM ATP for 15 min. Phosphate concentration in supernatants was measured after addition of Malachite green/polyvinylalcohol/ammonium mobylate solution for 20 min by a spectrophotometer at 620 nm and compared against a standard curve. Experiment was performed in triplicate.
Protocol: 1×10^5 melanoma cells (SK-MEL-5) were cultured in complete RPMI medium alone or in presence of BA54g mAb for 16 h. Cells were then washed three times in phosphate free buffer (10 mM glucose, 20 mM Hepes, 5 mM KCl, 120 mM NaCl, 2 mM CaCl2) and resuspended in the same buffer supplemented with 100 μM ATP for 15 min Phosphate concentration in supernatants was measured after addition of Malachite green/polyvinylalcohol/ammonium mobylate solution for 20 min by a spectrophotometer at 620 nm and compared against a standard curve. Experiment was performed in triplicate.

Molecule | CD4 T cell proliferation [1] | CD8 T cell proliferation [1] | CD39 activity of lymphoma cells [2] | CD39 enzymatic activity of melanoma cells [3]
[Na+].[Na+].[Na+].[Na+].[Na+].[Na+].[O]=[W](=[O])([O-])[O-].[O]=[W](=[O])([O-])[O-].[O]=[W](=[O])([O-])[O-].[O]=[W](=[O])=[O].[O]=[W](=[O])=[O].[O]=[W](=[O])=[O].[O]=[W](=[O])=[O].[O]=[W](=[O])=[O].[O]=[W](=[O])=[O].[O]=[W](=[O])=[O].[O]=[W](=[O])=[O].[O]=[W](=[O])=[O] [POM-1, sodium metatungstate, reference compound] | increased | increased | – | –
B1 | increased | increased | inhibited CD39 activity in a dose dependant manner | –
B2 | – | – | inhibited CD39 activity in a dose dependant manner | inhibits CD39 enzymatic activity in a dose dependant manner
